Test results taken from patent US20040071656A1, “Modulation of heat-shock-protein-based immunotherapies” (priority 2001, published 2004).

Biological target: T1, human CD40 (Homo sapiens, UniProt P25942)
T1 construct: CD40 full-length cDNA was cloned by PCR; expressed in transfected cells
Assay: P38 kinase assay in HEK293T-CD40 cells
Format: cell-based
Conditions: for phosphorylated p38 in HEK293T-CD40 cells: 100 nM, 20 min at 37° C., ADP and peptide C
Experimental: P38 Kinase Assay. Twenty-four h prior to P38 kinase assays HEK293T-CD40 and HEK293T-MCAT cells were seeded into a 24-well plate coated with collagen and incubated with 100 nM CD40L (Alexis), HSP70, N70-domain, C70-domain, or DnaK for 20 min at 37° C. DnaK, Hsp70, N70 and C70 were preincubated with either 2 mM ADP and 30 μM peptide C or 40 μM AMPPNP (Sigma). Upon stimulation cells were washed twice with ice-cold PBS, and lysed in SDS-sample buffer. Equal amounts of protein were analyzed by immunoblotting with antibodies directed against phosphorylated P38 (Promega), and with a monoclonal anti-tubulin antibody (J. Wehland, Braunschweig, Germany).
Binding of Hsp70-peptide complex to CD40 results in intracellular signaling and peptide uptake. Binding of CD40 ligand to CD40 induces signal transduction via phosphorylation of p38, a component of the signal cascade between activated CD40 and NF-kappaB, which eventually results in the release of TNF-alpha and subsequent secretion of interferon-gamma (Pullen et al., 1999). Binding of the C-terminal domain of DnaK to CD40 was reported to have a similar effect (Wang et al., 2001, idem). We therefore investigated whether binding of human Hsp70-peptide complex to CD40 also stimulates this signaling pathway. These experiments were carried out in HEK293T cells stably transfected with human CD40 cDNA. After incubation with either Hsp70-peptide complex, recombinant Hsp70 domains, or DnaK, in the presence of ADP or the non-hydrolysable ATP analogue AMPPNP, cells were lysed, and lysates analyzed by immunoblotting with an antibody directed against active (i.e., phosphorylated) p38.
Details for FIG. 6. Binding of Hsp70 complex to CD40-expressing HEK293T cells induces signaling via p38 and causes peptide uptake. […] Thereafter cells were washed, solubilized in SDS-sample buffer, and analyzed by immunoblotting with antibodies directed against phosphorylated (active) p38. […] Thereafter cells were washed, incubated for 15 min at 37° C., and processed for fluorescence microscopy. […]

T1 sequence (P25942 21-277): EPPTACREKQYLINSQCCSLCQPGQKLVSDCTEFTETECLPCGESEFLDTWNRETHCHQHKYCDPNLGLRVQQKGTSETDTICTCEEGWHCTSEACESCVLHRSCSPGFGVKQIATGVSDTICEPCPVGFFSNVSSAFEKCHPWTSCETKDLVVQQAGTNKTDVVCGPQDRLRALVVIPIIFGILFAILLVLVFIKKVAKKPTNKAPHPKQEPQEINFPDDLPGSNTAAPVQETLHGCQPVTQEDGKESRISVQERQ

| Substance | phosphorylated p38 in HEK293T-CD40 cells | activation of p38 by Hsp70, nucleotide dependence (ADP versus AMPPNP, compared with same molar concentration of CD40 ligand) |
| --- | --- | --- |
| Hsp70: Recombinant human heat shock protein 70, expressed and purified as His-tagged protein | caused an increase in phosphorylated p38 to an extent comparable to that observed with DnaK | significant, and depended on the presence of ADP |
| N70: Recombinant N-terminal ATPase domain of human Hsp70, residues 5-381 (SEQ ID NO: 1) | caused an increase in phosphorylated p38 to an extent comparable to that observed with DnaK |  |
